The record followed here is US20240191211A1, “BIOLUMINESCENCE-TRIGGERED PHOTOCATALYTIC LABELING” (Promega Corporation, priority 2022, published 2024).

This experiment concerns the target LgBiT-HaloTag. Description: luminescence saturation binding: VS-HiBiT titrated 200-0 nM against 0.2 nM fusion.

Chain of LgBiT-HaloTag (chain, as listed by the source limits assumed): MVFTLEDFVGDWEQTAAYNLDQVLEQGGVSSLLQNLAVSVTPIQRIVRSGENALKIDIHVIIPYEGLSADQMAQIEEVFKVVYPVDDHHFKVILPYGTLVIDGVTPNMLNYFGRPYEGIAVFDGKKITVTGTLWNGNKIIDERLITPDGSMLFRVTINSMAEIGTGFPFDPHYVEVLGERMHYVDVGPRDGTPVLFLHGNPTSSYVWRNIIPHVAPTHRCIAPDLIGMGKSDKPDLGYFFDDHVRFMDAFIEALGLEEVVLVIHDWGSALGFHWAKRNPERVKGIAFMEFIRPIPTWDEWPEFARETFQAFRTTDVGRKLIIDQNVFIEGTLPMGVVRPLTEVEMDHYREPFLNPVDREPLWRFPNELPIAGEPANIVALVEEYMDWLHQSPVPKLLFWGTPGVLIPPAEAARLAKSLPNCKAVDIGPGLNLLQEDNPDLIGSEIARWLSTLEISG

Molecule VSGWRLFKKIS (modifications not checked) [VS-HiBiT peptide] gave a fold complementation affinity (against the VS-HiBiT/HaloTag-LgBiT configuration) of 3 fold.
